Assay results reported in patent publication US20250352661A1 (MYTHIC THERAPEUTICS, published 2025).

T1: LRRC15 on the surface of LRRC15+ cells (SAOS-2, U87MG) (UniProt Q8TF66 22-581, limits assumed)
T1 sequence (looked up): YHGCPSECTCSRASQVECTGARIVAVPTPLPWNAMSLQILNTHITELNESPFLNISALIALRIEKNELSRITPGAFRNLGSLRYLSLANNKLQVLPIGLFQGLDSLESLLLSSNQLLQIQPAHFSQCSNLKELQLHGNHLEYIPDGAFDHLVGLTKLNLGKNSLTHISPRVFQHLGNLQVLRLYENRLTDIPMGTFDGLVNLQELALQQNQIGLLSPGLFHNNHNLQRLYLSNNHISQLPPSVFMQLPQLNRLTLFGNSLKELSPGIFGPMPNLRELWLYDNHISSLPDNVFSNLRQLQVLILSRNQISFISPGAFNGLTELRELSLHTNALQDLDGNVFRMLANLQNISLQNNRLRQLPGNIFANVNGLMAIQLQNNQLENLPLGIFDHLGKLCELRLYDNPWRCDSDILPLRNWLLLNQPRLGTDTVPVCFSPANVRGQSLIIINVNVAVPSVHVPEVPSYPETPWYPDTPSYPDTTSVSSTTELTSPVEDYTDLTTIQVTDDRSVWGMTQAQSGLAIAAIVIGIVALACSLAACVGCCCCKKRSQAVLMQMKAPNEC

T2: LRRC15 on LRRC15 positive cell lines SAOS2 and G292 (UniProt Q8TF66 22-581, limits assumed)
T2 construct: whole, on cells
T2 sequence (looked up): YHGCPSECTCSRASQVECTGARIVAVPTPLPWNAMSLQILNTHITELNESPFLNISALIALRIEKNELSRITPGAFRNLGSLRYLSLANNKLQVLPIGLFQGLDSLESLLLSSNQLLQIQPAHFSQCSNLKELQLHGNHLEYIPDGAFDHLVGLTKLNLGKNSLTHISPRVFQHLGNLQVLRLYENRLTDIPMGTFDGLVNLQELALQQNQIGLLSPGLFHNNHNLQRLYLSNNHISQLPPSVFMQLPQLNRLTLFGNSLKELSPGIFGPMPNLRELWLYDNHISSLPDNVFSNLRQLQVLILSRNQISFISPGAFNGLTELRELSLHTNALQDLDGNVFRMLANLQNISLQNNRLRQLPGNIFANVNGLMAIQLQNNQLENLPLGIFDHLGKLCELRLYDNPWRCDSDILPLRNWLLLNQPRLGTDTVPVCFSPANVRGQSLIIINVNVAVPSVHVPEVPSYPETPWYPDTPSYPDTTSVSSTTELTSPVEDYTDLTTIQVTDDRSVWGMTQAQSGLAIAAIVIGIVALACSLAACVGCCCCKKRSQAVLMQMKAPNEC

T3: Human LRRC15 Protein, His Tag (Acro Biosystems) (human, UniProt Q8TF66 22-538, limits assumed)
T3 construct: not shown: His tag
T3 sequence (looked up): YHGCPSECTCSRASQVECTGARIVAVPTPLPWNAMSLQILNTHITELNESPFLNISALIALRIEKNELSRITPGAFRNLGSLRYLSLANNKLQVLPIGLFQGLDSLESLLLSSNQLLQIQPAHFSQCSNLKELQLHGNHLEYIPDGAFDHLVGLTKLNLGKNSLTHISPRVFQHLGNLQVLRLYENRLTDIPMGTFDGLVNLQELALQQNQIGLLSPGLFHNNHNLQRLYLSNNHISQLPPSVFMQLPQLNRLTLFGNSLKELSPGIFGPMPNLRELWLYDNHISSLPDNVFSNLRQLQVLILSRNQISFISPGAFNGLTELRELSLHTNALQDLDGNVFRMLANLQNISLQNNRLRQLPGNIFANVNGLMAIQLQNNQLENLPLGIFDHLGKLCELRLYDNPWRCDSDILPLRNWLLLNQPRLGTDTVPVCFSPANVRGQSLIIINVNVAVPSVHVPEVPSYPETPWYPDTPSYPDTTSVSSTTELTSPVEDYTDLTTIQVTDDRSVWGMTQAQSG


What was measured:
[1] = biological target: T1, LRRC15 on the surface of LRRC15+ cells …; test: cell-based or functional assay
[2] = biological target: T2, LRRC15 on LRRC15 positive cell lines …; test: cell binding on SAOS2 cells (LRRC15 positive), pH 7.4; parameters: unit not given here
[3] = biological target: T2, LRRC15 on LRRC15 positive cell lines …; test: cell binding on SAOS2 cells (LRRC15 positive), pH 6.4
[4] = biological target: T2, LRRC15 on LRRC15 positive cell lines …; test: cell binding on G292 cells (LRRC15 positive), pH 6.4
[5] = biological target: T2, LRRC15 on LRRC15 positive cell lines …; test: cell binding on G292 cells (LRRC15 positive), pH 7.4; parameters: unit not given here
[6] = biological target: T3, Human LRRC15 Protein, His Tag (Acro …); test: BLI (Octet), Ab on anti-human Fc sensor, LRRC15 associated at pH 7.4
Experimental: For each individual plot, antigen binding proteins were captured on anti-human Fc biosensors and associated with LRRC15 at pH 7.4. Dissociation was at pH 7.4 (black) or pH 5.4 (grey). Major X-axis ticks=100 seconds, with left dashed vertical line=0 seconds. Major Y-axis ticks=0.5 nm and octet plots are shown MYT5712 and MYT6080-MYT6121.
After allowing for a period of protein expression, cell culture supernatants are collected, quantified, and the pH dependence of the variant is evaluated using biolayer interferometry (BLI) or other methods known to the art. Briefly, cell culture supernatants are normalized to an antibody expression level of 50 μg/mL, and captured on an anti-human Fc sensor (Forte Bio). A baseline is established using 1× kinetics buffer (Forte Bio), and the sensor is associated with 100 nM of LRRC15 in 1×PBS at pH 7.4 for 300 sec to generate an association curve. In the dissociation phase, the antibody-antigen complex on the sensor is exposed to 1×PBS at either pH 5.5 or pH 7.4 for 300-500 sec. […]

[7] = biological target: T3, Human LRRC15 Protein, His Tag (Acro …); test: BLI; dissociation pH 7.4 black, pH 5.4 grey [2/2); D00020 FIG. 4B (2/2]
Experimental: Desirable mutations were transferred to a humanized framework (humanized, MYT 8387-8411). After allowing for four days of protein expression, cell culture supernatants were collected, quantified by SDS-PAGE analysis, and the pH dependence of the variant was evaluated using biolayer interferometry (BLI) on an Octet RED 96e instrument. Briefly, cell culture supernatants were diluted based on qualitative expression level of the variant determined by visual examination of SDS-PAGE gels, 5 μL of cell culture supernatant was diluted into 195 μL of 1×PBST, pH 7.4 for high expressors, 25 μL of cell culture supernatant was diluted into 175 μL of 1×PBST, pH 7.4 for medium expressors and 100 μL of cell culture supernatant was diluted into 100 μL of 1×PBST, pH 7.4 for low expressors for loading onto the sensor tips. The resulting diluted supernatants were then captured on an anti-human Fc sensor (Forte Bio). A baseline was established using 1×PBST (50 mM Potassium Phosphate Buffer+150 mM NaCl+0.05% Tween 20) pH 7.4, and the […] was associated with 50 nM of LRRC15 (Human LRRC15 Protein, His Tag, Acro Biosystems) in 1×PBST pH 7.4 for 120 sec to generate an association curve. In the dissociation phase, the antibody-antigen complex on the sensor was exposed to 1×PBST pH 7.4 or pH 5.4, for 300 sec. Association and dissociation phase curves were examined for the starting ABPC antibody (with no substitutions) and each corresponding antibody variant at pH 5.4 and pH 7.4 to inform on two criteria: a) enhanced dissociation (i.e., higher koff values) at pH 5.4 due to histidine substitution compared to the starting ABPC, (with no substitutions), and b) reduced dissociation at pH 7.4 (i.e., lower koff values) compared to pH 5.4 in the antibody variant itself and with the starting ABPC (with no substitutions).
The methods of Examples 9-10 were applied to RabMAb clone 29F1 (rabbit VH SEQ ID NO: 572 and VL SEQ ID NO: 578; and humanized VH SEQ ID NO: 576 and VL SEQ ID NO: 582).

Row | Affinity [2] | Affinity [3] | Affinity [4] | Affinity [5] | Binder | also measured
1 |  |  |  |  | Samrotamab V205C ADC (antibody, part only; not given: V205C light chain and payload, V domains shown, part only) VH: EVQLVQSGAEVKKPGASVKVSCKASGYKFSSYWIEWVKQAPGQGLEWIGEILPGSDTTNYNEKFKDRATFTSDTSINTAYMELSRLRSDDTAVYYCARDRGNYRAWFGYWGQGTLVTVSS | 20 nM Efficacy (cytotoxicity of candidates against SAOS-2 cells) [1]: 16.4
2 | 0.31 | 0.336 | 0.187 | 0.165 | MYT5438, samrotamab ADC, Hinge Conjugated, DAR 2.0 (antibody, V domains shown, ADC: payload conjugated at the hinge, DAR 2.0 (payload not given) ; ADC: payload conjugated at hinge cysteines, DAR 2.0. The letters do not carry it., also called Sam; ADC, Hinge (DAR 2.0); Samrotamab WT) VH: EVQLVQSGAEVKKPGASVKVSCKASGYKFSSYWIEWVKQAPGQGLEWIGEILPGSDTTNYNEKFKDRATFTSDTSINTAYMELSRLRSDDTAVYYCARDRGNYRAWFGYWGQGTLVTVSS VL: DIQMTQSPSSLSASVGDRVTITCRASQDISNYLNWYQQKPGGAVKFLIYYTSRLHSGVPSRFSGSGSGTDYTLTISSLQPEDFATYFCQQGEALPWTFGGGTKVEIK | 
3 | 0.84 | 0.92 | 0.676 | 0.528 | MYT2737 (antibody, V domains shown, also called Sam; LC His Variant; samrotamab LC His Var) VH: EVQLVQSGAEVKKPGASVKVSCKASGYKFSSYWIEWVKQAPGQGLEWIGEILPGSDTTNYNEKFKDRATFTSDTSINTAYMELSRLRSDDTAVYYCARDRGNYRAWFGYWGQGTLVTVSS VL: DIQMTQSPSSLSASVGDRVTITCRASQDISNYLNWYQQKPGGAVKFLIYHTSRLHSGVPSRFSGSGSGTDYTLTISSLQPEDFATYFCQQGEALPWTFGGGTKVEIK | 
4 |  |  |  |  | MYT8511 (antibody, V domains shown, Rabbit 24D9 VH combination variant; also called 24D9 VH combo F27H, S28H, I52H) VH: QQQLVESGGGLVKPGASLTLTCKASGHHFSGSYWICWVRQAPGKGLEWIGCHNGGSLDITYYASWAKGRFTISKASSTTVTLQKTSLTAADTATYFCASDTSYTAYGNFYFNLWGPGTLVTVSS VL: AQVLTQTASPVSAAVGGTVTINCQSSQSVLNNNWLAWYQQKPGQPPKLLIYDASSLASGVPSRFKGSGSGTQFTLTISDLESDDAATYYCQGEFSCGSADCNAFGGGTEVVVKG | binding result [6]: no binding (tested: 50 nM)
5 | 0.296 | 0.398 | 0.251 | 0.155 | MYT3315 (antibody, V domains shown, also called hu139.10 LC His Variant; hu139.10 LC His Var) VH: EVQLVESGGGLVQPGGSLRLSCAVSGFSLTSYGVHWVRQATGKGLEWLGVIWAGGSTNYNSALMSRLTISKENAKSSVYLQMNSLRAGDTAMYYCATHMITEDYYGMDYWGQGTTVTVSS VL: DIVMTQSPDSLAVSLGERATINCKSSQSLLNSRTRKNYLAWYQQKPGQSPKLLIYWASTRHSGVPDRFSGSGSGTDFTLTISSLQAEDVAVYYCKQSYNLPTFGGGTKVEIK | 
6 |  |  |  |  | MYT9505 (antibody, V domains shown, also called hu29F1 VH N111D) VH: EVQLVESGGGLVQPGGSLRLSCTASGFSFSSSHWICWVRQAPGKGLEWVGCIYAGSIGSTYYASWAKGRFTISRDTSKNTVYLQMNSLRAEDTAVYYCARAPNDIYNYYFDLWGQGTLVTVSS VL: EIVMTQSPSTLSASVGDRVIITCQASENIYNYLAWYQQKPGKAPKLLIYYASTLASGVPSRFSGSGSGAEFTLTISSLQPDDFATYYCQSGYVSKSSTFGQGTKLTVL | binding result [7]: binds
7 |  |  |  |  | MYT9506 (antibody, V domains shown, also called hu29F1 VH L112D) VH: EVQLVESGGGLVQPGGSLRLSCTASGFSFSSSHWICWVRQAPGKGLEWVGCIYAGSIGSTYYASWAKGRFTISRDTSKNTVYLQMNSLRAEDTAVYYCARAPNDIYNYYFNDWGQGTLVTVSS VL: EIVMTQSPSTLSASVGDRVIITCQASENIYNYLAWYQQKPGKAPKLLIYYASTLASGVPSRFSGSGSGAEFTLTISSLQPDDFATYYCQSGYVSKSSTFGQGTKLTVL | binding result [7]: binds
